Tests used:
[1] = target: T1, HSF5 N-terminal protein (HSF5-DBD) (Mus musculus, UniProt Q5ND04 1-209); experiment: EMSA; 0.04 pmol probe, protein/DNA molar ratio 15.6-250; three shifted bands; 20 mM Tris-HCl pH 8.0, 100 mM NaCl, 2 mM MgCl2, 10 ul, 25 C, 10 min; 8% polyacrylamide gel in Tris-borate pH 8.3, 2 mM EDTA; conditions: protein: recombinant; tags: His (pET19b, E. coli; Ni-NTA purified); label: 32P (Klenow, [a-32P]dCTP); 5' overhang 3 nt (AGG) on both strands before Klenow labelling
T1 sequence: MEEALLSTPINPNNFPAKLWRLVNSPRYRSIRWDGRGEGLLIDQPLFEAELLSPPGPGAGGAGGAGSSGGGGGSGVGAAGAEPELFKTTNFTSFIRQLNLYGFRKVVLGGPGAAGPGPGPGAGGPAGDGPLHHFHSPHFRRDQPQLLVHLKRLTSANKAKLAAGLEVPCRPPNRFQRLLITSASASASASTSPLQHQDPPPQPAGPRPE

[2] = target: T1, HSF5 N-terminal protein (HSF5-DBD); experiment: competition; 1 uM protein, 0.04 pmol labeled T probe, 1-125 fold excess competitor; 20 mM Tris-HCl pH 8.0, 100 mM NaCl, 2 mM MgCl2, 10 ul, 25 C, 10 min; 8% polyacrylamide gel in Tris-borate pH 8.3, 2 mM EDTA; conditions: protein: recombinant; tags: His (pET19b, E. coli; Ni-NTA purified); 5' overhang 3 nt (AGG) on both strands
[3] = target: T1, HSF5 N-terminal protein (HSF5-DBD); experiment: EMSA; 0.04 pmol probe, protein/DNA molar ratio 15.6-250; shifts completely abolished; 20 mM Tris-HCl pH 8.0, 100 mM NaCl, 2 mM MgCl2, 10 ul, 25 C, 10 min; 8% polyacrylamide gel in Tris-borate pH 8.3, 2 mM EDTA; conditions: protein: recombinant; tags: His (pET19b, E. coli; Ni-NTA purified); label: 32P (Klenow, [a-32P]dCTP); 5' overhang 3 nt (AGG) on both strands before Klenow labelling
[4] = target: T1, HSF5 N-terminal protein (HSF5-DBD); experiment: competition; 1 uM protein, 0.04 pmol labeled T probe, 1-125 fold excess competitor; did not compete; 20 mM Tris-HCl pH 8.0, 100 mM NaCl, 2 mM MgCl2, 10 ul, 25 C, 10 min; 8% polyacrylamide gel in Tris-borate pH 8.3, 2 mM EDTA; conditions: protein: recombinant; tags: His (pET19b, E. coli; Ni-NTA purified); 5' overhang 3 nt (AGG) on both strands
[5] = target: the molecule itself; experiment: SEC-MALS; after heat treatment at 42 °C for 30 min; 100 μL of MBP-full length HSF5 (12.6 μM) or HSF5-DBD (26.6 μM) injected; PROTEIN KW-803 column; 25 mM HEPES/KOH pH 7.2, 150 mM KCl

B1: HSF5-EMSA target (T) probe (dsDNA)
DNA 1: AGGGCATAGATATGGAACTCTCTTAGAACTCTCTTAGAACTTACTACTG
DNA 2: AGGCAGTAGTAAGTTCTAAGAGAGTTCTAAGAGAGTTCCATATCTATGC
- binding result [1]: binds

B2: unlabeled target (T) competitor (dsDNA)
DNA 1: AGGGCATAGATATGGAACTCTCTTAGAACTCTCTTAGAACTTACTACTG
DNA 2: AGGCAGTAGTAAGTTCTAAGAGAGTTCTAAGAGAGTTCCATATCTATGC
- binding result [2]: binds

B3: HSF5-EMSA mutant (M) probe (dsDNA)
DNA 1: AGGGCATAGATAACCTTGAGTCTATCTTGAGTCTATCTTGAAACTACTG
DNA 2: AGGCAGTAGTTTCAAGATAGACTCAAGATAGACTCAAGGTTATCTATGC
- binding result [3]: no binding

B4: unlabeled mutant (M) competitor (dsDNA)
DNA 1: AGGGCATAGATAACCTTGAGTCTATCTTGAGTCTATCTTGAAACTACTG
DNA 2: AGGCAGTAGTTTCAAGATAGACTCAAGATAGACTCAAGGTTATCTATGC
- binding result [4]: no binding

B5: His-MBP-fused full-length HSF5 protein (natural protein, mouse, UniProt Q5ND04 1-624, looked up)
chain: MEEALLSTPINPNNFPAKLWRLVNSPRYRSIRWDGRGEGLLIDQPLFEAELLSPPGPGAGGAGGAGSSGGGGGSGVGAAGAEPELFKTTNFTSFIRQLNLYGFRKVVLGGPGAAGPGPGPGAGGPAGDGPLHHFHSPHFRRDQPQLLVHLKRLTSANKAKLAAGLEVPCRPPNRFQRLLITSASASASASTSPLQHQDPPPQPAGPRPEQHGPVAVGQFHRSFRRDNLSPYSYVSTSSHNHSAFPLKGLDRTPIPPRTWQNSLGMHPGQVETSPTFSDKGVPFPVLQRFPTEVTYTLQPSATSVHVQQGPQTMVSSSQKYSNYTPSAQYSQAYYPTAVLQCCSPPTHMDALSSCVTPTASSYAHCNYFQNPPMQSSYPVEFLPSNWPCSATDENKKTEVNLEAVFQIVDELHSSPKLEMVKVEPVETQCPSSQANRGQHILPNANSSNPSSTSQASQLEPLTPVGSDITSFVVGTEQAITCSLPQSPEYIYTIHTAQPLENSTMQESATIQQTHVKLKEQLNHNPSPSSVVFVQEGLPFSTPQVDSSIKCQTNPSENILPSEQMGFLISEMGPANKSTKDTGLSTPARYRERRSNSQGKSPDLHLLVDVACKQEHFPKEEELKE
notes: Heat shock transcription factor 5 (HSF5), mouse, full length; A tobacco etch virus protease cleavage site lies between His6-MBP and HSF5; the fusion was not cleaved for SEC-MALS; also called MBP-full length HSF5; His-MBP-full length HSF5; source: pMAL-c6T construct, purified (HisTrap HP, gel filtration on Superdex 200 pg 16/600); not shown: His6, N-terminal, kept; MBP, N-terminal, kept
- binding result [5]: binds
